Target: rdx, Q9VFP2-2
Sequence (Q9VFP2 456-829): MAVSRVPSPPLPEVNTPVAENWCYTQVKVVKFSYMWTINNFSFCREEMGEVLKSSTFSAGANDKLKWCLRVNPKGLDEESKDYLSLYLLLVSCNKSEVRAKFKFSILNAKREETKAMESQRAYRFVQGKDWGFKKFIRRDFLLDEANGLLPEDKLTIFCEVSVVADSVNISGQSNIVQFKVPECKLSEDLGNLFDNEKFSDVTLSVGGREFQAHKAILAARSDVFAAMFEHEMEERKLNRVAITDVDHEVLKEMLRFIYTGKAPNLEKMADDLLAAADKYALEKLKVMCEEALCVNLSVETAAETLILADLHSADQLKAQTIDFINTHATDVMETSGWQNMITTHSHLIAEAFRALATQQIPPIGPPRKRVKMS

Substance | effect of a mutation on the interaction
Transcriptional activator cubitus interruptus (Drosophila melanogaster (Fruit fly)), P19538 S373A | disrupting interaction strength
Transcriptional activator cubitus interruptus (Drosophila melanogaster (Fruit fly)), P19538 S373D | disrupting interaction strength
Transcriptional activator cubitus interruptus (Drosophila melanogaster (Fruit fly)), P19538 S372A | disrupting interaction strength
Transcriptional activator cubitus interruptus (Drosophila melanogaster (Fruit fly)), P19538 T374A | disrupting interaction strength
Transcriptional activator cubitus interruptus (Drosophila melanogaster (Fruit fly)), P19538 S375D | disrupting interaction strength
Transcriptional activator cubitus interruptus (Drosophila melanogaster (Fruit fly)), P19538 S375A | disrupting interaction strength
Transcriptional activator cubitus interruptus (Drosophila melanogaster (Fruit fly)), P19538 E369A | disrupting interaction strength
Transcriptional activator cubitus interruptus (Drosophila melanogaster (Fruit fly)), P19538 T374D | disrupting interaction strength
